Laboratory results: the Immune Epitope Database (IEDB)

Key:
HLA-B*15:42 = assay: IEDB peptide-MHC binding, purified MHC/competitive/fluorescence; filed as Kd, often an IC50 or EC50 that approximates it; ≥ and ≤ were set here for values at or beyond the usual limits of such assays
HLA-B*27:20 = assay: as above
HLA-B*45:06 = assay: as above
HLA-B*83:01 = assay: as above
HLA-C*04:01 = assay: as above; conditions: source organism: Yersinia pestis CO92
HLA-C*01:02 = assay: IEDB peptide-MHC binding, purified MHC/direct/fluorescence; filed as Kd, often an IC50 or EC50 that approximates it; ≥ and ≤ were set here for values at or beyond the usual limits of such assays; conditions: source organism: Homo sapiens
HLA-B*35:01 [1] = assay: IEDB peptide-MHC binding, cellular MHC/competitive/fluorescence; ≥ and ≤ were set here for values at or beyond the usual limits of such assays; conditions: source organism: Influenza A virus H3N2
HLA-B*73:01 = assay: IEDB peptide-MHC binding, purified MHC/competitive/fluorescence; filed as Kd, often an IC50 or EC50 that approximates it; ≥ and ≤ were set here for values at or beyond the usual limits of such assays; conditions: source organism: Vibrio cholerae V52
HLA-A*02:01 [2] = assay: IEDB peptide-MHC binding, cellular MHC/competitive/fluorescence; ≥ and ≤ were set here for values at or beyond the usual limits of such assays; conditions: source organism: Measles morbillivirus
HLA-C*08:02 = assay: IEDB peptide-MHC binding, purified MHC/direct/fluorescence; filed as Kd, often an IC50 or EC50 that approximates it; ≥ and ≤ were set here for values at or beyond the usual limits of such assays; conditions: source organism: Burkholderia mallei SAVP1
HLA-A*02:01 [3] = assay: IEDB peptide-MHC binding, purified MHC/competitive/fluorescence; filed as Kd, often an IC50 or EC50 that approximates it; ≥ and ≤ were set here for values at or beyond the usual limits of such assays; conditions: source organism: Burkholderia mallei SAVP1
HLA-A*02:11 = assay: as above; conditions: source organism: Burkholderia mallei SAVP1
HLA-A*03:01 [4] = assay: as above; conditions: source organism: Burkholderia mallei SAVP1
HLA-A*26:01 [5] = assay: as above; conditions: source organism: Burkholderia mallei SAVP1
HLA-A*29:02 [6] = assay: as above; conditions: source organism: Burkholderia mallei SAVP1
HLA-A*68:02 [7] = assay: as above; conditions: source organism: Burkholderia mallei SAVP1
HLA-A*69:01 [8] = assay: as above; conditions: source organism: Burkholderia mallei SAVP1
HLA-B*15:17 = assay: as above; conditions: source organism: Burkholderia mallei SAVP1
HLA-B*18:01 [9] = assay: as above; conditions: source organism: Burkholderia mallei SAVP1
HLA-B*27:03 = assay: as above; conditions: source organism: Burkholderia mallei SAVP1
HLA-B*46:01 = assay: as above; conditions: source organism: Burkholderia mallei SAVP1
HLA-B*51:01 [10] = assay: as above; conditions: source organism: Burkholderia mallei SAVP1
HLA-B*57:01 [11] = assay: as above; conditions: source organism: Burkholderia mallei SAVP1
HLA-A*24:02 [12] = assay: IEDB peptide-MHC binding, purified MHC/competitive/radioactivity; ≥ and ≤ were set here for values at or beyond the usual limits of such assays; conditions: source organism: Homo sapiens
HLA-A*01:01 = assay: IEDB peptide-MHC binding, purified MHC/competitive/fluorescence; ≥ and ≤ were set here for values at or beyond the usual limits of such assays; conditions: source organism: Homo sapiens
HLA-A*02:01 [13] = assay: as above; conditions: source organism: Homo sapiens
HLA-A*03:01 [14] = assay: as above; conditions: source organism: Homo sapiens
HLA-A*11:01 = assay: as above; conditions: source organism: Homo sapiens
HLA-A*24:02 [15] = assay: as above; conditions: source organism: Homo sapiens
HLA-A*25:01 = assay: as above; conditions: source organism: Homo sapiens
HLA-A*29:02 [16] = assay: as above; conditions: source organism: Homo sapiens
HLA-A*31:01 = assay: as above; conditions: source organism: Homo sapiens
HLA-A*68:02 [17] = assay: as above; conditions: source organism: Homo sapiens
HLA-B*07:02 = assay: as above; conditions: source organism: Homo sapiens
HLA-B*08:01 = assay: as above; conditions: source organism: Homo sapiens
HLA-B*14:02 = assay: as above; conditions: source organism: Homo sapiens
HLA-B*18:01 [18] = assay: as above; conditions: source organism: Homo sapiens
HLA-B*35:01 [19] = assay: as above; conditions: source organism: Homo sapiens
HLA-B*37:01 = assay: as above; conditions: source organism: Homo sapiens
HLA-B*40:02 = assay: as above; conditions: source organism: Homo sapiens
HLA-B*44:03 = assay: as above; conditions: source organism: Homo sapiens
HLA-B*51:01 [20] = assay: as above; conditions: source organism: Homo sapiens
HLA-B*53:01 = assay: as above; conditions: source organism: Homo sapiens
HLA-B*58:01 = assay: as above; conditions: source organism: Homo sapiens
HLA-C*14:02 [21] = assay: IEDB peptide-MHC binding, purified MHC/direct/fluorescence; filed as Kd, often an IC50 or EC50 that approximates it; ≥ and ≤ were set here for values at or beyond the usual limits of such assays; conditions: source organism: Homo sapiens
HLA-A*02:01 [22] = assay: IEDB peptide-MHC binding, binding assay; filed as Kd, often an IC50 or EC50 that approximates it; ≥ and ≤ were set here for values at or beyond the usual limits of such assays; conditions: source organism: Severe acute respiratory syndrome coronavirus 2 Indonesia/JI-ITD-12202V/2020
HLA-A*03:01 [23] = assay: IEDB peptide-MHC binding, purified MHC/direct/fluorescence; filed as Kd, often an IC50 or EC50 that approximates it; ≥ and ≤ were set here for values at or beyond the usual limits of such assays; conditions: source organism: Coxiella burnetii Q321
HLA-A*26:01 [24] = assay: as above; conditions: source organism: Coxiella burnetii Q321
HLA-A*29:02 [25] = assay: as above; conditions: source organism: Coxiella burnetii Q321
HLA-A*69:01 [26] = assay: as above; conditions: source organism: Coxiella burnetii Q321
HLA-B*18:01 [27] = assay: as above; conditions: source organism: Coxiella burnetii Q321
HLA-B*57:01 [28] = assay: as above; conditions: source organism: Coxiella burnetii Q321
HLA-C*07:02 = assay: as above; conditions: source organism: Coxiella burnetii RSA 493
HLA-C*06:02 = assay: IEDB peptide-MHC binding, purified MHC/competitive/fluorescence; filed as Kd, often an IC50 or EC50 that approximates it; ≥ and ≤ were set here for values at or beyond the usual limits of such assays; conditions: source organism: Coxiella burnetii RSA 493
HLA-C*14:02 [29] = assay: as above; conditions: source organism: Coxiella burnetii RSA 493
[30] = source organism: Yersinia pestis CO92
[31] = source organism: Coxiella burnetii RSA 493

Question: How did the Kd (HLA-B*15:42; [30]) turn out when FRDRGQHVL was run?
Answer: Its Kd is ≥ 5 µM.

Question: What about the Kd (HLA-B*27:20; [30]) of the same sequence?
Answer: The Kd was 0.4 nM.

Question: What about the Kd (HLA-B*45:06; [30]) of the same sequence?
Answer: Its Kd is ≥ 5 µM.

Question: And the Kd (HLA-B*83:01; [30])?
Answer: The Kd was ≥ 5 µM.

Question: What about the Kd (HLA-C*04:01) of the same sequence?
Answer: Its Kd is ≥ 5 µM.

Question: For HLSSSQLQSL, which Kd (HLA-C*01:02) is on record?
Answer: Its Kd is ≤ 0.1 nM.

Question: LPFDKPTIM was tested. Which IC50 (HLA-B*35:01 [1]) did it give?
Answer: Its IC50 is 1600 nM.

Question: Which Kd (HLA-B*73:01) does the source give for NRTQGGLRA here?
Answer: The Kd was 136 nM.

Question: Which IC50 (HLA-A*02:01 [2]) does the source give for QLPEATFMV here?
Answer: Its IC50 is 2000 nM.

Question: Which results are given for RLDARLQVL?
Answer: Kd (HLA-C*08:02): 82 nM; Kd (HLA-A*02:01 [3]): 7.4 nM; Kd (HLA-A*02:11): 1.1 nM; Kd (HLA-A*03:01 [4]): ≥ 20 µM; Kd (HLA-A*26:01 [5]): ≥ 20 µM; Kd (HLA-A*29:02 [6]): 1020 nM; Kd (HLA-A*68:02 [7]): ≥ 20 µM; Kd (HLA-A*69:01 [8]): ≥ 20 µM; Kd (HLA-B*15:17): ≥ 20 µM; Kd (HLA-B*18:01 [9]): ≥ 20 µM; Kd (HLA-B*27:03): ≥ 20 µM; Kd (HLA-B*46:01): ≥ 20 µM; Kd (HLA-B*51:01 [10]): ≥ 20 µM; Kd (HLA-B*57:01 [11]): ≥ 20 µM

Question: Which IC50 (HLA-A*24:02 [12]) does the source give for SFSTTINYTL here?
Answer: Its IC50 is 800 nM.

Question: With SLMASSPTSI as the sequence, how does the IC50 (HLA-A*01:01) read?
Answer: Its IC50 is ≥ 20 µM.

Question: What about the IC50 (HLA-A*02:01 [13]) of the same sequence?
Answer: Its IC50 is 20.8 nM.

Question: And the IC50 (HLA-A*03:01 [14])?
Answer: The IC50 was ≥ 20 µM.

Question: And the IC50 (HLA-A*11:01)?
Answer: Its IC50 is ≥ 20 µM.

Question: What about the IC50 (HLA-A*24:02 [15]) of the same sequence?
Answer: Its IC50 is 1240 nM.

Question: And the IC50 (HLA-A*25:01)?
Answer: The IC50 was ≥ 20 µM.

Question: And the IC50 (HLA-A*29:02 [16])?
Answer: The IC50 was 1210 nM.

Question: What about the IC50 (HLA-A*31:01) of the same sequence?
Answer: The IC50 was ≥ 20 µM.

Question: And the IC50 (HLA-A*68:02 [17])?
Answer: The IC50 was 1010 nM.

Question: And the IC50 (HLA-B*07:02)?
Answer: The IC50 was 2510 nM.

Question: And the IC50 (HLA-B*08:01)?
Answer: The IC50 was ≥ 20 µM.

Question: And the IC50 (HLA-B*14:02)?
Answer: Its IC50 is ≥ 20 µM.

Question: And the IC50 (HLA-B*18:01 [18])?
Answer: The IC50 was ≥ 20 µM.

Question: What about the IC50 (HLA-B*35:01 [19]) of the same sequence?
Answer: Its IC50 is ≥ 20 µM.

Question: And the IC50 (HLA-B*37:01)?
Answer: The IC50 was ≥ 20 µM.

Question: And the IC50 (HLA-B*40:02)?
Answer: The IC50 was ≥ 20 µM.

Question: What about the IC50 (HLA-B*44:03) of the same sequence?
Answer: The IC50 was ≥ 20 µM.

Question: And the IC50 (HLA-B*51:01 [20])?
Answer: Its IC50 is ≥ 20 µM.

Question: What about the IC50 (HLA-B*53:01) of the same sequence?
Answer: Its IC50 is ≥ 20 µM.

Question: What about the IC50 (HLA-B*58:01) of the same sequence?
Answer: Its IC50 is ≥ 20 µM.

Question: What about the Kd (HLA-C*14:02 [21]) of the same sequence?
Answer: The Kd was 1120 nM.

Question: YLQPRTFLL was tested. Which Kd (HLA-A*02:01 [22]) did it give?
Answer: Its Kd is 75 nM.

Question: What does the source list for YRATYSMAL?
Answer: Kd (HLA-A*03:01 [23]): ≥ 20 µM; Kd (HLA-A*26:01 [24]): ≥ 20 µM; Kd (HLA-A*29:02 [25]): ≥ 20 µM; Kd (HLA-A*69:01 [26]): ≥ 20 µM; Kd (HLA-B*18:01 [27]): ≥ 20 µM; Kd (HLA-B*57:01 [28]): ≥ 20 µM; Kd (HLA-C*07:02): 80 nM; Kd (HLA-B*15:42; [31]): ≥ 5 µM; Kd (HLA-B*27:20; [31]): 0.7 nM; Kd (HLA-B*45:06; [31]): ≥ 5 µM; Kd (HLA-B*83:01; [31]): ≥ 5 µM; Kd (HLA-C*06:02): 6.1 nM; Kd (HLA-C*14:02 [29]): 119 nM
